The source of these data is patent US20260234242A1 (HAINAN SIMCERE ZAIMING PHARMACEUTICAL, published 2026).

For assay [1], the target named is T1, human CDH6 on tumor cells (OVCAR3 cells, PA-1 cells) (human, UniProt P55285 54-790).
T1 sequence: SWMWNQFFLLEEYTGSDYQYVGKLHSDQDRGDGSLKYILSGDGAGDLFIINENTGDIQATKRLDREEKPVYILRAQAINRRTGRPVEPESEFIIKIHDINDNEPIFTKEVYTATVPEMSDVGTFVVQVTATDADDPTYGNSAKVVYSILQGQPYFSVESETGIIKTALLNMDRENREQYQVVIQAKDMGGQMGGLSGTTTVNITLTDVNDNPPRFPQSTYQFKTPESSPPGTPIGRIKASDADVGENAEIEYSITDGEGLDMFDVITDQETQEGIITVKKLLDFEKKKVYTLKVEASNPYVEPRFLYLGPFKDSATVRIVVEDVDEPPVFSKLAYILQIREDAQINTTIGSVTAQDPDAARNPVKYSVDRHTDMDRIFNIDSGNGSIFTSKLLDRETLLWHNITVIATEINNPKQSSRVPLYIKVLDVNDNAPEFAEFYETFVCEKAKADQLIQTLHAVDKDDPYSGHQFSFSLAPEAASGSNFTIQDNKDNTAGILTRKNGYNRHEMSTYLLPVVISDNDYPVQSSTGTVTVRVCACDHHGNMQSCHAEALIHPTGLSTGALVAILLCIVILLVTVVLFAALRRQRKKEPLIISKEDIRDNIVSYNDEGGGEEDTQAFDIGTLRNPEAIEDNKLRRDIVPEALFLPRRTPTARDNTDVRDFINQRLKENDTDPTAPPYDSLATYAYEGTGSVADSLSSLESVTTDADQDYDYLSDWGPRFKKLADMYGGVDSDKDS
The assay is described as follows: FACS, PA-1 cells. As for the experimental part: (§1) OVCAR3 cells with high expression of CDH6 and PA-1 cells with moderate expression of CDH6 were used to detect the binding activity of the antibodies to the cells. […] The cells were washed once with PBS, counted, resuspended to 2×10⁶ cells/mL in an FACS buffer (PBS+2% FBS), and then added to a 96-well plate at 50 μL/well. The chimeric antibodies were diluted with FACS buffer (PBS+2% FBS) and added to the 96-well plate at 50 μL/well, and the plate was incubated at 4° C. for 1 h. […] The dilution was added to the 96-well plate at 50 μL/well, and the plate was incubated at 4° C. for 1 h. After the plates were centrifuged and washed 2 times with PBS, the cells were resuspended in an FACS buffer. The mean fluorescence intensity (MFI) was measured using FACS Canton II (BD). Analysis was performed by the GraphPad Prism software, data were fitted, and EC50 values were calculated. The chimeric antibodies tested had strong binding to both OVCAR3 cells and PA-1 cells.
(In general: Flow cytometry measures light scatter and fluorescence of single cells or particles in a stream.)

The target in assay [2] is T1, human CDH6 on tumor cells (OVCAR3 …). The assay can be described thus: FACS, OVCAR3 cells. The protocol: as §1
Assay [3] addresses T2, human CDH6 with EC3 removed, on HEK293T cells (HEK293T-hCDH6-EC3 deletion) (human, UniProt P55285 54-790).
T2 construct: Signal peptide not removed here
T2 sequence: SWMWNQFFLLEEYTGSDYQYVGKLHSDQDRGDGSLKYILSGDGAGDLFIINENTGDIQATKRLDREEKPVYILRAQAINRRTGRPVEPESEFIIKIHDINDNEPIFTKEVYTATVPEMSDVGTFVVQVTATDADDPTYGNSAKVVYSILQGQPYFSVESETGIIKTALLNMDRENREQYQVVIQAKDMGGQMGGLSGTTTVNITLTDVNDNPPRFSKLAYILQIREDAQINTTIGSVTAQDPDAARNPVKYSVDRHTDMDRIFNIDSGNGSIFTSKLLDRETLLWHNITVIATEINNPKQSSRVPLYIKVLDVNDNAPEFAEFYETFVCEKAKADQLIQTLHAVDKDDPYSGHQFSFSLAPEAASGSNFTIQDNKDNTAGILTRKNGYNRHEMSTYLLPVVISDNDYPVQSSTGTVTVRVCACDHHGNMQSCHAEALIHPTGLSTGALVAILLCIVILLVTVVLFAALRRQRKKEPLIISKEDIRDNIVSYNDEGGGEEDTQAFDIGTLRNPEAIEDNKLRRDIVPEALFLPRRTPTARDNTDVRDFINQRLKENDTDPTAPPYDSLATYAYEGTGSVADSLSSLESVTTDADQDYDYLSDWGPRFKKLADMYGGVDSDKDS
The assay is described as follows: FACS, HEK293T-hCDH6-EC3 deletion cells. From the text:
To confirm the binding epitope of the CDH6 antibody, the sequences after removal of these 5 regions were constructed into pcDNA3.1 vectors (purchased from Youbio, Cat. No. VT1001), and transfected into HEK293T cells (purchased from Cell Bank of Chinese Academy of Sciences, Cat. No. SCSP-502) to obtain 5 CDH6 truncated cell lines: HEK293T-hCDH6-EC1 deletion, HEK293T-hCDH6-EC2 deletion, HEK293T-hCDH6-EC3 deletion, HEK293T-hCDH6-EC4 deletion, and HEK293T-hCDH6-EC5 deletion.
The binding activity of the CDH6 chimeric antibodies to these 5 cell lines was assayed by FACS.

For assay [4], the target named is T3, human CDH6 with EC1 removed, on HEK293T cells (HEK293T-hCDH6-EC1 deletion) (human, UniProt P55285 160-790).
T3 construct: Signal peptide not removed here
T3 sequence: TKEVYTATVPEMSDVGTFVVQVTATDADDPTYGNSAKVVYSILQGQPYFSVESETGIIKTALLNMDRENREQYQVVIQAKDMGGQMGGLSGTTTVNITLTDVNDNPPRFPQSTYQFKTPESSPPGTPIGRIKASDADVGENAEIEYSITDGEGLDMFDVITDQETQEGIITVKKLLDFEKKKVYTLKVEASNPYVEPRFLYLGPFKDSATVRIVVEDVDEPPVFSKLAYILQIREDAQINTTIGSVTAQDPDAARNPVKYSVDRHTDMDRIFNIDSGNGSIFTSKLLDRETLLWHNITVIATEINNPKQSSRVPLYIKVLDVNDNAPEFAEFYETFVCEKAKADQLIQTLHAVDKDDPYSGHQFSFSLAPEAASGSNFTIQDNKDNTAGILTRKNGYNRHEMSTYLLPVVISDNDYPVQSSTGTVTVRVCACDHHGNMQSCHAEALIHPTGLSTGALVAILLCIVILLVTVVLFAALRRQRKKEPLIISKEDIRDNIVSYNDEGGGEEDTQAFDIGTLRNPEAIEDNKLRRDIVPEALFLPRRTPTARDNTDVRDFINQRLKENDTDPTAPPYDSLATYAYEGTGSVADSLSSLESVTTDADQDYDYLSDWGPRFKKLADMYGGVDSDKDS
The assay can be described thus: FACS, HEK293T-hCDH6-EC1 deletion cells.

B1: CHI-CDH6-11 (antibody, human IgG1, kappa, V domains shown)
VH: QIQLQQSGPELVKPGASVRISCKASGYTFTDYYITWVKLRPGQGLEWIGWIYPGSVNIKYNEKFKGKATLTVDTSSSTAYMQLNSLTSEDSAVYFCARGGYSWFPYWGQGTLVTVSA
VL: NIVMTQSPKSMSMSVGERVTLSCKASENVHTYVSWYQQKPEQSPKLLFYGASTRNTGVPDRFTGSGSATDFTLTISSVQAEDLADYYCGQSYSYPYTFGSGTKLEIKR
notes: also called chimeric antibody of murine CDH6-11
The EC50 is the concentration giving half of the maximal effect. High values mean lower potency in that assay, low ones higher potency in that assay. For the molecule B1, the values for the EC50 in assay [1] and in assay [2] were 1.78 nM and 2.14 nM, respectively. The “Max MFI” value in assay [1] stood at 4690 MFI; in assay [2] it was 14500 MFI.

B2: CHI-CDH6-9 (antibody, human IgG1, kappa, V domains shown)
VH: QVQLQQPGAELVKPGASVKLSCKASGYTFTGYWMHWVRQRPGQGLEWIGEINPNNGGTNCNEQFKNKATLTVDKSSSTAYMQLSSLTSEDSAVFYCTISFGNYLFFDVWGAGTTVTVSS
VL: DIQMTQSPASLAASVGETITITCQASENIYFSLAWYQQKQGKSPQLLIYNANTLEDGVPSRFVGSGSGTQYSMKINSIQPEDTATYFCDQTYDFPWTFGGGTKLEIKR
notes: also called chimeric antibody of murine CDH6-9
In the case of B2, in assay [1], the EC50 stood at 0.16 nM and the “Max MFI” value came out at 4400 MFI. Moreover, in assay [2], the EC50 was 0.51 nM and the “Max MFI” value is 18200 MFI.

B3: CHI-CDH6-6 (antibody, human IgG1, kappa, V domains shown)
VH: EVQLQQSGPELVKPGDSVKMSCKASGYTFTDYYMAWVRQSHRKSLEWIGYIFPNSGGTDYSQKFKGKATLTVDKSSSTVYMELHSLTSEDSAVYYCARELGADYGDYYAMDHWGQGTSVSVSS
VL: DIQMTQSPASLSASVGETVTITCRASENIDSYLAWYQQKQGKSPQLLVYSATLLADGVPSRFSGSGSGTQYSLKINSLKSEDVARYYCQHYYRTPPTFGSGTKLEIKR
notes: also called CHI-hCDH6-6; chimeric antibody of murine CDH6-6
In the case of B3, in assay [1], it took 0.43 nM to reach a half-maximal effect (EC50) and the “Max MFI” value turned out to be 4630 MFI. Further, in assay [2], a half-maximal effect (EC50) was put at 0.67 nM and the “Max MFI” value is 14800 MFI.

B4: CHI-CDH6-8 (antibody, human IgG1, kappa, V domains shown)
VH: EVQLQQSGPELVKPGDSVKMSCKASGYTFTDYYMAWIKQNHGKSLEWIGYIYPNNGGTDYNQKFRGKATLTVDKSSSAAYMELHSLTSEDSAVYYCAREIGTLYGDYYAMDYWGQGTSVTVSS
VL: DIQMTQSPASLSASVGETVTITCRASENIDSYLAWYQQKQGKSPQLLVYTATLLADGVPSRFSGSGSGTQYSLKINSLQSEDVARYYCQHYYSTPPTFGSGTKLEIKR
notes: also called chimeric antibody of murine CDH6-8
In the case of B4, the values for the EC50 in assay [1] and in assay [2] were 0.23 nM and 0.46 nM, respectively. For the same molecule, the “Max MFI” value was determined as 4710 MFI in assay [1] and 16100 MFI in assay [2].

B5: CHI-CDH6-1 (antibody, human IgG1, kappa, V domains shown)
VH: QVQLQQPGAELVRPGSSVKLSCKASGYTFTNYWMHWVKQRPIEGLEWIGDIDPSHSETHYTQKFKDKATLTVDKSSSTAYMQLSSLTSEDSAVYYCARGDLGRFDYWGQGTTLTVSS
VL: DIVLTQSPASLAVSLGQRATISCRASESVSIHGTHLMHWYQQKSGQPPKLLIYAASNLESGVPARFSGSGSETDFTFNIHPVEEEDAATYFCQQSFEDPWTFGGGTKLEIKR
notes: also called CHI-hCDH6-1; CH1-CDH6-1
As to B5, the “Max MFI” value in assay [3] came to 18000 MFI; in assay [4], 84 MFI; in assay [1], 4390 MFI; in assay [2], 14700 MFI. In addition, the EC50 is 0.1 nM in assay [1] and 0.13 nM in assay [2].

B6: CHI-CDH6-10 (antibody, human IgG1, kappa, V domains shown)
VH: QVQLQQPGAELVKPGTSVKMSCKASGYTFTSDWIAWVKQRPGQGLEWIGDIYPGSGRTHNNEKFNFKATLTVDTSSNTAYMQLSSLTSEDSAVYFCARPMLGRFDYWGQGTTLTVSS
VL: DIVLTQSPASLAVSLGQRATISCRASESVSIHGTHLMHWYQQKPGQPPKLLIYAASNLESGVPARFSGSGSETDFTLNIHPVEEEDAATYFCQQSFEDPFTFGSGTKLEIKR
notes: also called chimeric antibody of murine CDH6-10
As for B6, in assay [1], the EC50 was determined as 0.08 nM and the “Max MFI” value amounted to 4070 MFI. Moreover, in assay [2], a half-maximal effect (EC50) was put at 0.2 nM and the “Max MFI” value stood at 13900 MFI.

B7: CHI-CDH6-3 (antibody, human IgG1, kappa, V domains shown)
VH: QVQLQQPGAELVKPGASVKLSCKASGYTFTSYWIHWVKQRPGQGLEWIGEINPSNGVTNCNENFKSKATLTVDKSSSTAYMQLSSLTSEDSAVYYCTIPNLLWWYFDVWGAGTTVTVSS
VL: DIQMTQSPASLSVSVGETVTITCRASENIYSNLAWYQQKQGKSPQLLVYEATNLADGVPSRFSGSGSGTQYSLKINSLQSEDFGSYYCQHFWGTLWTFGGGTKLEIKR
notes: also called CH1-CDH6-3; chimeric antibody of murine CDH6-3
For the molecule B7, the “Max MFI” value is 689 MFI in assay [3], 11100 MFI in assay [4], 3870 MFI in assay [1] and 15500 MFI in assay [2]. Besides, the results for the EC50 in assay [1] and in assay [2] were 0.13 nM and 1.16 nM, respectively.

B8: CHI-CDH6-2 (antibody, human IgG1, kappa, V domains shown)
VH: EVQLQQSGPELVKPGASVRISCKASGYTFTDYYMNWVKQSHGKSLEWIGDIDPNNANTTYNQKFKGKATLTVDKSSSTAYMELRSLTSEDSAVYSCASFGYDVEWFGYWGQGTLVTVSA
VL: QIVLTQSPALMSASPGEKVTMTCSASSSVSYMYWYQQKPRSSPKPWIYLTSNLASGVPARFSGSGSGTSYSLTISSMEAEDAATYYCQQWSSNPFTFGSGTKLEIKR
notes: also called chimeric antibody of murine CDH6-2
Consider B8, for which, in assay [1], the concentration giving a half-maximal response (EC50) was 0.2 nM and the “Max MFI” value is 4760 MFI. For the same molecule, in assay [2], the EC50 was found to be 0.36 nM and the “Max MFI” value is 15600 MFI.

B9: CHI-CDH6-13 (antibody, human IgG1, kappa, V domains shown)
VH: DVQLQESGPGLVKPSQSLSLTCSVTGYSITKDSYWNWIRQFPGSKLEWMGFISYDGSRHYNPSLKNRISITRDTSKNQFFLQLNSVTTEDTATYYCARRDYADYWGQGTTLTVSS
VL: QIVLTQSPALMSAFPGEKVTMTCSATSSVSYIYWYQQKPRSSPKPWIYLTSNLASGVPARFSGSGSGTSYSLTINSLEAEDAATYYCQQWSSIPYTFGGGTKLEIKR
notes: also called chimeric antibody of murine CDH6-13
In the case of B9, the EC50 was 1.97 nM in assay [1] and 2.08 nM in assay [2]. The “Max MFI” value worked out at 4440 MFI in assay [1] and 17600 MFI in assay [2].
